What was measured:
Myostatin [1] = target: T1, Myostatin (UniProt O14793 267-375); experiment: cell-based or functional assay
T1 sequence (looked up): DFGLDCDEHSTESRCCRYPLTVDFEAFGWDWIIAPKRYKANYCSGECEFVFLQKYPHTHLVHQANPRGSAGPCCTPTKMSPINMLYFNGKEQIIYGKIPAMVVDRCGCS

Activin A [2] = target: T2, Activin A (UniProt P08476 311-426); experiment: cell-based or functional assay
T2 sequence (looked up): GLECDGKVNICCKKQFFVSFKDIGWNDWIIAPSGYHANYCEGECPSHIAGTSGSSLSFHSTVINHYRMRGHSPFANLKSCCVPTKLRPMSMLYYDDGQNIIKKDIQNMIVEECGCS

Myostatin [3] = target: T1, Myostatin; experiment: surface plasmon resonance
Activin A [4] = target: T2, Activin A; experiment: surface plasmon resonance
Myostatin [5] = target: T1, Myostatin; experiment: SPR (BIAcore), myostatin as analyte

B1: ActRIIB-Fc (Fc fusion, UniProt Q13705 19-134, looked up, not shown: a dimerising Fc or GST)
chain: SGRGEAETRECIYYNANWELERTNQSGLERCEGEQDKRLHCYASWRNSSGTIELVKKGCWLDDFNCYDRQECVATEENPQVYFCCCEGNFCNERFTHLPEAGGPEVTYEPPPTAPT
Myostatin IC50, cell-based assay for SMAD pathway (A204 luciferase reporter) (Myostatin [1]): 0.5 nM
Activin A IC50, cell-based assay for SMAD pathway (A204 luciferase reporter) (Activin A [2]): 0.5 nM

B2: FS315K(76,81,82)E-mFc (Fc fusion)
chain: GNCWLRQAKNGRCQVLYKTELSKEECCSTGRLSTSWTEEDVNDNTLFKWMIFNGGAPNCIPCKETCENVDCGPGKECRMNEENKPRCVCAPDCSNITWKGPVCGLDGKTYRNECALLKARCKEQPELEVQYQGRCKKTCRDVFCPGSSTCVVDQTNNAYCVTCNRICPEPASSEQYLCGNDGVTYSSACHLRKATCLLGRSIGLAYEGKCIKAKSCEDIQCTGGKKCLWDFKVGRGRCSLCDELCPDSKSDEPVCASDNATYASECAMKEAACSSGVLLEVKHSGSCNSISEDTEEEEEDEDQDYSFPISSILEW
notes: K76, K81, K82 to glutamic acid, fused with murine Fc; also called FS-EEE-mFc; not shown: murine Fc (mFc)
Kd (Myostatin [3]): 0.0075 nM
Kd (Activin A [4]): 0.0061 nM
Kd (Myostatin [5]): 0.0148 nM
Myostatin IC50, cell-based assay for SMAD pathway (A204 luciferase reporter) (Myostatin [1]): 0.7 nM
Activin A IC50, cell-based assay for SMAD pathway (A204 luciferase reporter) (Activin A [2]): 0.8 nM
